This data set deals with Isw1 alone (Saccharomyces cerevisiae). Kind of data set: EMSA. The settings on record: 35 mM Na-HEPES pH 7.8, 5 mM MgCl2, 0.1 mM EGTA, 0.02 M EDTA (so in the source), 70 mM NaCl, 0.1 mg/ml BSA, 5-8% glycerol, 40 uM 2-mercaptoethanol, 30 C, 30 min …. On the technique in general: Mobility shift assays separate free from complexed probe on a gel.

As a reminder, the Kd is the free concentration of one partner at which half of the binding sites on the other are occupied at equilibrium, for simple one-to-one binding. A lower Kd goes with a tighter complex.

0N70 mononucleosome had a Kd of 21.9 nM.
